Results published in US20220275053A1, “MODIFIED […] PEPTIDE LIGANDS” (BicycleTx Limited, priority 2019, published 2022).
*1 amine or outer side, *2 acyl side, *3 side chain or, on linkers, in order; H or OH if unused. Where a SMILES comes first, the peptide text is derived from it. Bridges are numbered along the chain shown (N, C = ends). Roman numbers before positions name the chains, in order. [ ]: non-standard residue; d: D form. X1 = N=c1ccc2c(-c3ccc(C(=O)NCCOCCOCCN(CCOCCOCCOCCn4cc(CCC(=O)[*:1])nn4)CCOCCOCCOCCn4cc(CCC(=O)[*:2])nn4)cc3C(=O)O)c3ccc(N)c(S(=O)(=O)O)c3oc-2c1S(=O)(=O)O; TATA = O=C(CC[*:1])N1CN(C(=O)CC[*:2])CN(C(=O)CC[*:3])C1; tBuAla = CC(C)(C)C[C@H](N)C(=O)O; Nle = CCCC[C@H](N)C(=O)O

Legend:
[1] = molecular target: T1, CD137 (Homo sapiens, UniProt Q07011); experiment: BCY15416 direct binding to CD4 and CD8 positive T-cells (CD3 stimulated PBMCs, flow cytometry)
T1 construct: Human peripheral blood mononuclear cells (PBMCs) were isolated from buffy coats from two donors; endogenous in cells
T1 sequence (Q07011 24-255): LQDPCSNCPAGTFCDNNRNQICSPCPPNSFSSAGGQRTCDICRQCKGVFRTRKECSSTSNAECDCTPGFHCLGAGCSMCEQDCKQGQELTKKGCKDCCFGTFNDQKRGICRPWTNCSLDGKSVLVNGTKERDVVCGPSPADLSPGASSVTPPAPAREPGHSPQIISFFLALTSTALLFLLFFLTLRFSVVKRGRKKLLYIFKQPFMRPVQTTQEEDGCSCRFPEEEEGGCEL
Method: To evaluate the affinity of a CD137 dimeric Bicycle® peptide conjugated to Alexa Fluor® 488, herein referred to as BCY15416, a binding assay utilizing CD3 stimulated primary peripheral blood mononuclear cells (PBMCs) was implemented.
On the day of the experiment, medium was prepared by supplementing RPMI-1640 (Gibco™ 11875-093; with L-glutamine) with 10% heat-inactivated fetal bovine serum (FBS; Corning® 35-011-CV), 10 mM HEPES (Gibco™ 15-630-080), and 1% Penicillin Streptomycin (Corning™ 30-002-CI), herein referred to as working medium. Previously isolated human peripheral blood mononuclear cells (PBMCs), from whole blood, were quick thawed in a water bath and washed once at 500 rpm for 5 minutes in 10 mL of prewarmed working medium. PBMC pellet was then resuspended in working medium at a concentration of 3×10^6 cells/mL. Subsequently, 100 μL of cell suspension was plated in a flat-bottom tissue-culture coated 96-well plate (Greiner CellStar® 655180). Anti-human CD3 (200 ng/mL; BioLegend® 317347; clone OKT3) was added to the cell plate (100 μL/well) at a final concentration of 100 ng/mL Whereas, for unstimulated controls 100 μL of working medium was added. Cells were incubated overnight (12-24 hours) at 37° C., 5% CO2.
Plates were then incubated for 1 hour at 37° C., 5% CO2. Post-incubation, plate was centrifuged at 500 rpm for 5 minutes and supernatant discarded. Samples were then washed once in 200 μL of 1× phosphate buffer saline (PBS; Gibco™ 10-010-023) at 500 rpm for 5 minutes. Cells were resuspended in 200 μL of PBS and transferred to a 96-well V-bottom polypropylene plate (Greiner Bio-One 651201). Samples were then centrifuged at 500 rpm for 5 minutes and supernatant was discarded.
Preparation of samples for flow cytometry: Zombie Violet™ Fixable Viability Dye (BioLegend® 423113) was prepared as a 1:1000 dilution in PBS and 100 μL of viability dye was added to each well and incubated in the dark at 4° C. for 30 minutes. Subsequently, wells were washed with 100 μL of PBS for 5 minutes at 500 rpm and supernatant was discarded. Next, human TruStain FcX™ block (BioLegend® 422302) was prepared by diluting 1.5 μL of FcX in 25 μL of stain buffer (1×PBS supplemented with 2% FBS). Fc block solution (25 μL/well) was incubated at room temperature (RT) for 10 minutes in the dark. […] Cells resuspended in 200 μL of stain buffer were kept at 4° C. and in the dark until read by BD FACSCelesta™ flow cytometer and FCS files were analyzed in FlowJo™.
Cells were gated on lymphocytes→singlets→live→CD4+ or CD8+→CD137+/− and the geometric mean of Alexa Fluor® 488 (conjugated to BCY15416) was calculated from the CD137+ and CD137− populations shown below. […] Calculated binding affinity (kd,app) for each donor appear in Table 5.

[2] = molecular target: T2, CD137 (Macaca fascicularis, UniProt A9YYE7); experiment: Fluorescent multimer cyno immune cell direct binding assay (FACS); design: species or system cynomolgus monkey; settings: FIG. 4
T2 construct: Cryopreserved PBMCs were purchased from Worldwide Primates and thawed according to standard protocol
T2 sequence (A9YYE7 1-254): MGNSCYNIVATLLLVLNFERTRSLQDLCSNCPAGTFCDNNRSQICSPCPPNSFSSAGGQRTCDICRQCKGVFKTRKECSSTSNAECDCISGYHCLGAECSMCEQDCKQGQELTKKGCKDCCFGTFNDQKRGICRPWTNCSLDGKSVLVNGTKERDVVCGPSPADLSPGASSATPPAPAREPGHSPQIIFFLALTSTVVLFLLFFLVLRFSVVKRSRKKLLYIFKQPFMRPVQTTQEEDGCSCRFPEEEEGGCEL
Method: Cryopreserved PBMCs were purchased from Worldwide Primates and thawed according to standard protocol. CD8+ T cells were then isolated from the PBMCs with a MACS CD8+ T cell isolation kit (negative bead selection) according to the manufacturer's protocol (Miltenyi Biotec). Purified CD8+ T cells were then activated for 48 hours 96 well plates coated with CD3 antibody (1 μg/ml) in R10 media (RPMI1640+10% FBS+1× Pen-Strep). Cells were incubated in R10 media in the presence of fluorescent CD137 multimers or a fluorescent EphA2 bicyclic peptide monomer (BCY0215), which was used as a negative control, at different concentrations for 1 hour at 37° C. After 1 hour, cells were transferred to a V-bottom plate and washed and stained for FACs analysis. Briefly, cells were stained in 1× Live/Dead BV510 for 15 minutes, washed, and then surface stained with the following antibodies: CD8-BV785 and CD137-PECy5 (diluted 1:100 in 2% FBS/PBS). Cells were then washed and fixed in 2% paraformaldehyde (PFA). Cells were run on the BD FACSCelesta and FCS files were analyzed in FlowJo. Cells were gated on Single/Live/Lymphocytes/CD8+/CD137+ or CD137−. The FITC geometric mean of the CD137+ population is shown.

[3] = molecular target: T1, CD137; experiment: Fluorescent multimers human immune cell direct binding assay (FACS); settings: FIG. 3A
Method: Human peripheral blood mononuclear cells (PBMCs) were isolated from buffy coats from two donors according to standard protocols. PBMCs were used for the next step or alternatively CD8+ T cells were then isolated from the PBMCs with a MACS CD8+ T cell isolation kit (negative bead selection) according to the manufacturer's protocol (Miltenyi Biotec). PBMCs or purified CD8+ T cells were then activated for 24 hours in tissue culture flasks coated with CD3 antibody in R10 media (RPMI1640+10% FBS+1× Pen-Strep). Alternatively, cells were incubated in R10 media containing 1 μg/ml of soluble CD3 antibody (OKT3) for 24 hours. Cells were then transferred to CD3-coated 96-well flat bottom plates and incubated in R10 media in the presence of fluorescent CD137 multimers or a fluorescent EphA2 bicyclic peptide monomer (BCY0215), which was used as a negative control, at different concentrations for 1 hour at 37° C. After 1 hour, cells were transferred to a V-bottom plate and washed and stained for FACs analysis. Briefly, cells were stained in 1× Live/Dead BV510 for 15 minutes, washed, and then surface stained with the following antibodies: CD8-BV785 (or CD3-BV605) and CD137-PECy5 (diluted 1:100). Cells were then washed and fixed in 2% paraformaldehyde (PFA). Cells were run on the BD FACSCelesta and FCS files were analyzed in FlowJo. […]

[4] = molecular target: T3, human CD137 (human, UniProt Q07011 24-255); experiment: flow cytometry, direct binding to activated human CD8+/CD137+ T cells
T3 construct: whole, on cells; Endogenous receptor on CD3-stimulated human PBMCs or purified CD8+ T cells; also called CD137 receptor; 4-1BB
T3 sequence (Q07011 24-255): as the sequence (Q07011 24-255) above

Molecule: CCCC[C@@H]1NC(=O)[C@H](Cc2ccc(O)cc2)NC(=O)[C@@H]2CCCN2C(=O)[C@H](CC(=O)O)NC(=O)[C@H](C)NC(=O)[C@H](Cc2ccccc2)NC(=O)[C@@H]2CSCCC(=O)N3CN(CN(C3)C(=O)CCSC[C@@H](C(=O)N[C@@H](C)C(N)=O)NC1=O)C(=O)CCSC[C@H](NC(C)=O)C(=O)N[C@@H](CC(C)(C)C)C(=O)N1CCC[C@H]1C(=O)N[C@@H](CCC(=O)O)C(=O)N[C@H](CCCCNC(=O)CCc1cn(CCOCCOCCOCCN(CCOCCOCCNC(=O)c3ccc(-c4c5ccc(=N)c(S(=O)(=O)O)c-5oc5c(S(=O)(=O)O)c(N)ccc45)c(C(=O)O)c3)CCOCCOCCOCCn3cc(CCC(=O)NCCCC[C@H]4NC(=O)[C@H](CCC(=O)O)NC(=O)[C@@H]5CCCN5C(=O)[C@H](CC(C)(C)C)NC(=O)[C@@H](NC(C)=O)CSCCC(=O)N5CN6CN(C5)C(=O)CCSC[C@H](NC(=O)[C@H](Cc5ccc(O)cc5)NC(=O)[C@@H]5CCCN5C4=O)C(=O)N[C@@H](Cc4ccccc4)C(=O)N[C@@H](C)C(=O)N[C@@H](CC(=O)O)C(=O)N4CCC[C@H]4C(=O)N[C@@H](Cc4ccc(O)cc4)C(=O)N[C@@H](CCCC)C(=O)N[C@H](C(=O)N[C@@H](C)C(N)=O)CSCCC6=O)nn3)nn1)C(=O)N1CCC[C@H]1C(=O)N[C@@H](Cc1ccc(O)cc1)C(=O)N2 [BCY15416] (I: Ac-C[tBuAla]PE[dK]PYCFADPY[Nle]CA-NH2 / II: Ac-C[tBuAla]PE[dK]PYCFADPY[Nle]CA-NH2; linker I:1-I:8-I:15, II:1-II:8-II:15 via TATA; linker I:5-II:5 via X1; C-terminus assumed)
- binding to CD137+ T-cells (Alexa Fluor 488 geometric mean) ([1]; CD137+CD4+ and CD137+CD8+ T-cells, three human PBMC donors, FIG. 6): binding exclusively to the CD137+CD4+ T-cells and CD137+CD8+ T-cells, in a dose-dependent manner
- binding to CD137− T cells ([1]; CD137− CD4 and CD8 T cells, FIGS. 6A and 6B): does not bind
- binding affinity in CD137− populations ([1]; CD137− populations for both CD4+ and CD8+): unable to be calculated
- binding affinity (range in words) ([1]; both CD137+CD4+ and CD137+CD8+ populations): sub-nanomolar range

Molecule: BCY7340: Fluorescent CD137 dimer: formula (II), CHM C, 2 x BCY7077, SA n=23, fluorescein modifier (CIEEGQYCFADPYMCAX; not fully specified; non-natural residues; cyclised or stapled)
- binding potency relative to fluorescent trimer (BCY9932) and tetramer (BCY9931) ([2]; cyno CD137+ T cells): less potent binding
- binding to cyno CD137+ T cells (FITC geometric mean) ([2]; purified CD8+/CD137+ T cells from cynomolgus monkey PBMCs, 1 hour at 37° C.): bind to cyno CD137+ T cells in a dose responsive manner
- binding potency relative to fluorescent trimer (BCY9932) and tetramer (BCY9931) ([3]; human CD137+ T cells): slightly less potent binding
- binding to human CD137+ T cells (FITC geometric mean) ([3]; purified CD8+/CD137+ T cells from human PBMCs, 1 hour at 37° C.): bind to human CD137+ T cells in a dose responsive manner

B1: BCY9931 (peptide)
peptide: ACIEEGQYCFADPYXCX
modifications: N-terminal acetyl; Nle (norleucine) at position 12 of the core; C-terminal Dap(Lys(PYA)) amide (CONH2); the three Cys (Ci, Cii, Ciii) cyclised on the TATA scaffold; joined through PYA to spacer SA (n = 23) on central hinge moiety A; Alexa Fluor 488 conjugated to one of the four peptides (formula (I))
notes: also called fluorescent CD137 multimer; fluorescent tetramer
- binding result [4]: binds
